Measured values as given in PMC4892619.

What was measured:
[1] = target: T1, CsrA-His6 (Campylobacter jejuni 81-176) (UniProt Q0P9F1); experiment: EMSA; settings: 10 mM Tris-HCl pH 7.5, 10 mM MgCl2, 100 mM KCl, 32.5 ng yeast RNA, 20 mM DTT, 7.5% glycerol, 4 U RNase inhibitor, 10 ul, 30 min at 37 C; 15% native PAGE
T1 sequence: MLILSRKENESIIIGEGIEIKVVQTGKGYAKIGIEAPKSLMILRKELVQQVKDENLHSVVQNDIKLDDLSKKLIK

[2] = system: CsrA-His6 (Campylobacter jejuni 81-176); experiment: EMSA; settings: 10 mM Tris-HCl pH 7.5, 10 mM MgCl2, 100 mM KCl, 32.5 ng yeast RNA, 20 mM DTT, 7.5% glycerol, 4 U RNase inhibitor, 10 ul, 30 min at 37 C; 15% native PAGE

Substance	Kd [1]	Kd [2]
GGGUAUAAAUUUUUAAAAAAAAGUAACGAUAUAGCAUUUAACAAGCUCAUGGAUGAGUUUGAAAUUAUUUAAAAGGAUUUAAA [flaA mRNA 5' end transcript]	6.53 nM	–
flaA mRNA 5' end transcript	–	6.53 nM
